How the values were obtained:
[1] = target: HVEM:Fc (extracellular region of HVEM, 1 to K184, fused to the Fc region of human IgG1) (human) (UniProt Q92956); test: SPR (BIAcore)
[2] = target: LTβR (lymphotoxin β receptor) expressed by cells (human) (UniProt P36941); test: cell-based or functional assay
[3] = target: HVEM:Fc (extracellular region of HVEM, 1 to K184, fused to the Fc region of human IgG1) (human) (UniProt Q92956); test: SPR (BIAcore), receptor:Fc amine-coupled, LIGHT mutant as analyte 100-500 nM
[4] = target: mouse HVEM:Fc (mouse HVEM Met1 to Ser205 fused to the Fc region of human IgG1) (mouse; human) (UniProt Q80WM9); test: ELISA, receptor:Fc capture, anti-FLAG detection
mouse HVEM:Fc (mouse HVEM Met1 to Ser205 fused to the Fc region of human IgG1) (mouse; human), sequence (Q80WM9 39-205): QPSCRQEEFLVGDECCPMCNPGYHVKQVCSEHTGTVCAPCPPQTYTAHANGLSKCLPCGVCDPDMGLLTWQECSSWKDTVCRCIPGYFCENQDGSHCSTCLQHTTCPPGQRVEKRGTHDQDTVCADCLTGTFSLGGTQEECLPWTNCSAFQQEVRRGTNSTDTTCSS

[5] = target: mouse LTβR:Fc (amino acid residues 1 to Met221 of the extracellular domain of mouse LTβR) (mouse) (UniProt P50284); test: ELISA, receptor:Fc capture, anti-FLAG detection
mouse LTβR:Fc (amino acid residues 1 to Met221 of the extracellular domain of mouse LTβR) (mouse), sequence (P50284 31-221 limits assumed): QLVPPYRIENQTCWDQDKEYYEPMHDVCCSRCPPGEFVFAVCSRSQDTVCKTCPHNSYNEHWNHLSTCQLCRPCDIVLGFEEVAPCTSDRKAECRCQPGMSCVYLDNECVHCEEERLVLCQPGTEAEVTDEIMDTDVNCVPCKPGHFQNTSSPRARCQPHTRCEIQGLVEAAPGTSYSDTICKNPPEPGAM

[6] = target: HVEM:Fc (extracellular region of HVEM, 1 to K184, fused to the Fc region of human IgG1) (human) (UniProt Q92956); test: SPR (BIAcore), receptor:Fc amine-coupled, LIGHT as analyte 100-500 nM
[7] = target: human LTβR:Fc (human) (UniProt P36941); test: as above
human LTβR:Fc (human), sequence (P36941 31-227 limits assumed): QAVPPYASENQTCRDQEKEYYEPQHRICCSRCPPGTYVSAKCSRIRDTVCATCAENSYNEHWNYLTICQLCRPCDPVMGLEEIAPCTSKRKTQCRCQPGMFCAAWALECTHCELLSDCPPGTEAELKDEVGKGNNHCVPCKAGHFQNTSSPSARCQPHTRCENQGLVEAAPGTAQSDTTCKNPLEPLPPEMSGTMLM

HVEM:Fc (extracellular region of HVEM, 1 to K184, fused to the Fc region of human IgG1) (human), sequence (Q92956 39-184 limits assumed): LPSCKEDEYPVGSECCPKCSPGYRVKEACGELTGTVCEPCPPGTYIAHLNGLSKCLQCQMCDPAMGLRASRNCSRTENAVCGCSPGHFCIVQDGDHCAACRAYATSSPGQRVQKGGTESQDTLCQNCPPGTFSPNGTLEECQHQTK

| Substance | fold lower affinity than LIGHT t66 [1] [fold] | fold induction of ICAM expression by NHDF cells (flow cytometry, 20 nM) [2] [fold] | Kd [3] [nM] | koff [3] [s⁻¹] | kon [3] [M⁻¹ s⁻¹] | concentration for complete inhibition of HCMV cytopathic effect [2] [pM] | dose for 50% cytotoxicity to HT29 cells (MTT, with IFNγ) [2] [pM] | fold induction of ICAM expression by NHDF cells (flow cytometry, 5 nM) [2] [fold] | growth inhibition of HT29 cells by LIGHT (0.25 nM), MTT after 72 h [2] [%] | fold lower affinity (against the human receptors) [4] [fold] | fold lower affinity (against the human receptors) [5] [fold] | Kd [6] [nM] | koff [6] [s⁻¹] | kon [6] [M⁻¹ s⁻¹] | Kd [7] [nM] | koff [7] [s⁻¹] | kon [7] [M⁻¹ s⁻¹] |
| --- | --- | --- | --- | --- | --- | --- | --- | --- | --- | --- | --- | --- | --- | --- | --- | --- | --- |
| LIGHTt66-FLAG mutant G119E (from UniProt O43557 67-240) (ligand) | 30 | < 1.5 | 114 | 0.002 | 18000 |  |  |  |  |  |  |  |  |  |  |  |  |
| LIGHTt66-FLAG (recombinant soluble homotrimeric human LIGHT lacking the N-terminal 66 amino acids, N-terminal FLAG epitope) (ligand) |  |  |  |  |  | 100 | 10 to 100 | 4 | 50 | 10 | 10 | 3.9 | 4.8e-05 | 12000 | 4.5 | 0.00012 | 27000 |

Source: patent EP1674575A2
